Data from paper PMC10018365, “Cryo-EM structure of the fully assembled Elongator complex” (Nucleic Acids Research, 2023).

B1: Saccharomyces cerevisiae Elp1 (natural protein, UniProt Q06706 1-1349, looked up)
chain: MVEHDKSGSKRQELRSNMRNLITLNKGKFKPTASTAEGDEDDLSFTLLDSVFDTLSDSITCVLGSTDIGAIEVQQFMKDGSRNVLASFNIQTFDDKLLSFVHFADINQLVFVFEQGDIITATYDPVSLDPAETLIEIMGTIDNGIAAAQWSYDEETLAMVTKDRNVVVLSKLFEPISEYHLEVDDLKISKHVTVGWGKKETQFRGKGARAMEREALASLKASGLVGNQLRDPTMPYMVDTGDVTALDSHEITISWRGDCDYFAVSSVEEVPDEDDETKSIKRRAFRVFSREGQLDSASEPVTGMEHQLSWKPQGSLIASIQRKTDLGEEDSVDVIFFERNGLRHGEFDTRLPLDEKVESVCWNSNSEALAVVLANRIQLWTSKNYHWYLKQELYASDISYVKWHPEKDFTLMFSDAGFINIVDFAYKMAQGPTLEPFDNGTSLVVDGRTVNITPLALANVPPPMYYRDFETPGNVLDVACSFSNEIYAAINKDVLIFAAVPSIEEMKKGKHPSIVCEFPKSEFTSEVDSLRQVAFINDSIVGVLLDTDNLSRIALLDIQDITQPTLITIVEVYDKIVLLRSDFDYNHLVYETRDGTVCQLDAEGQLMEITKFPQLVRDFRVKRVHNTSAEDDDNWSAESSELVAFGITNNGKLFANQVLLASAVTSLEITDSFLLFTTAQHNLQFVHLNSTDFKPLPLVEEGVEDERVRAIERGSILVSVIPSKSSVVLQATRGNLETIYPRIMVLAEVRKNIMAKRYKEAFIVCRTHRINLDILHDYAPELFIENLEVFINQIGRVDYLNLFISCLSEDDVTKTKYKETLYSGISKSFGMEPAPLTEMQIYMKKKMFDPKTSKVNKICDAVLNVLLSNPEYKKKYLQTIITAYASQNPQNLSAALKLISELENSEEKDSCVTYLCFLQDVNVVYKSALSLYDVSLALLVAQKSQMDPREYLPFLQELQDNEPLRRKFLIDDYLGNYEKALEHLSEIDKDGNVSEEVIDYVESHDLYKHGLALYRYDSEKQNVIYNIYAKHLSSNQMYTDAAVAYEMLGKLKEAMGAYQSAKRWREAMSIAVQKFPEEVESVAEELISSLTFEHRYVDAADIQLEYLDNVKEAVALYCKAYRYDIASLVAIKAKKDELLEEVVDPGLGEGFGIIAELLADCKGQINSQLRRLRELRAKKEENPYAFYGQETEQADDVSVAPSETSTQESFFTRYTGKTGGTAKTGASRRTAKNKRREERKRARGKKGTIYEEEYLVQSVGRLIERLNQTKPDAVRVVEGLCRRNMREQAHQIQKNFVEVLDLLKANVKEIYSISEKDRERVNENGEVYYIPEIPVPEIHDFPKSHIVDF
notes: Elp1, S. cerevisiae, full-length ORF; also called ScElp1; source: S. cerevisiae DS1-2b, overexpressed, purified within ScElongator
B2: Homo sapiens Elp456 subcomplex with Elp4 Δ133–175 (complex)
chain 1: MAAVATCGSVAASTGSAVATASKSNVTSFQRRGPRASVTNDSGPRLVSIAGTRPSVRNGQLLVSTGLPALDQLLGGGLAVGTVLLIEEDKYNIYSPLLFKYFLAEGIVNGHTLLVASAKEDPANILQELPAPSSSRFGHYYDASKRMPQELIEASNWHGFFLPEKISSTLKVEPCSLTPGYTKLLQFIQNIIYEEGFDGSNPQKKQRNILRIGIQNLGSPLWGDDICCAENGGNSHSLTKFLYVLRGLLRTSLSACIITMPTHLIQNKAIIARVTTLSDVVVGLESFIGSERETNPLYKDYHGLIHIRQIPRLNNLICDESDVKDLAFKLKRKLFTIERLHLPPDLSDTVSRSSKMDLAESAKRLGPGCGMMAGGKKHLDF
chain 2: MLDSLLALGGLVLLRDSVEWEGRSLLKALVKKSALCGEQVHILGCEVSEEEFREGFDSDINNRLVYHDFFRDPLNWSKTEEAFPGGPLGALRAMCKRTDPVPVTIALDSLSWLLLRLPCTTLCQVLHAVSHQDSCPGDSSSVGKVSVLGLLHEELHGPGPVGALSSLAQTEVTLGGTMGQASAHILCRRPRQRPTDQTQWFSILPDFSLDLQEGPSVESQPYSDPHIPPVDPTTHLTFNLHLSKKEREARDSLILPFQFSSEKQQALLRPRPGQATSHIFYEPDAYDDLDQEDPDDDLDI
chain 3: MFVELNNLLNTTPDRAEQGKLTLLCDAKTDGSFLVHHFLSFYLKANCKVCFVALIQSFSHYSIVGQKLGVSLTMARERGQLVFLEGLKSAVDVVFQAQKEPHPLQFLREANAGNLKPLFEFVREALKPVDSGEARWTYPVLLVDDLSVLLSLGMGAVAVLDFIHYCRATVCWELKGNMVVLVHDSGDAEDEENDILLNGLSHQSHLILRAEGLATGFCRDVHGQLRILWRRPSQPAVHRDQSFTYQYKIQDKSVSFFAKGMSPAVL
notes: Elp5, human, ORF; Elp6, human, ORF; source: Hi-5 insect cells (baculovirus, biGBac), purified (IgG Sepharose with TEV elution, Superose 6); not shown: FLAG, C-terminal, kept; Protein A, C-terminal, cleaved; copies: 2 + 2 + 2

What was measured:
[1] = molecular target: the molecule itself; experiment: cryo-EM structure; ScElongator purified from overexpressing yeast, native sample (4.35 Å) and BS3-stabilised sample (6.6 Å; two-lobed map 17.2 Å); sample buffer 20 mM HEPES pH 7.5, 100 mM NaCl, 3 mM DTT
[2] = molecular target: T1, Homo sapiens Elp123 subcomplex, wild type (Homo sapiens, UniProt O95163 1-1332; Q6IA86 1-826; Q9H9T3 1-547); experiment: pull-down; 10 μg bait, 20 μg prey; Elp123 on StrepTactin Sepharose by Twin-Strep-tagged Elp3, or Elp456 on anti-DYKDDDDK resin by FLAG-tagged Elp6; 30-60 min at 4°C; washes in 20 mM HEPES pH 7.5, 100 mM NaCl, 1 mM DTT, 0.05% Tween 20; SDS-PAGE with Coomassie or silver stain; also with ATP and bulk tRNA; conditions: both partners purified
T1 construct: Elp1, human, ORF; Elp2, human, ORF; Elp3, human, ORF; also called human Elp123; source: Sf9-3 insect cells (baculovirus, biGBac), purified (StrepTrap, heparin, Superose 6); not shown: Twin-Strep-tag, C-terminal, kept; copies: 2 + 2 + 2
T1 sequence (O95163 whole entry, chain 1 of 3): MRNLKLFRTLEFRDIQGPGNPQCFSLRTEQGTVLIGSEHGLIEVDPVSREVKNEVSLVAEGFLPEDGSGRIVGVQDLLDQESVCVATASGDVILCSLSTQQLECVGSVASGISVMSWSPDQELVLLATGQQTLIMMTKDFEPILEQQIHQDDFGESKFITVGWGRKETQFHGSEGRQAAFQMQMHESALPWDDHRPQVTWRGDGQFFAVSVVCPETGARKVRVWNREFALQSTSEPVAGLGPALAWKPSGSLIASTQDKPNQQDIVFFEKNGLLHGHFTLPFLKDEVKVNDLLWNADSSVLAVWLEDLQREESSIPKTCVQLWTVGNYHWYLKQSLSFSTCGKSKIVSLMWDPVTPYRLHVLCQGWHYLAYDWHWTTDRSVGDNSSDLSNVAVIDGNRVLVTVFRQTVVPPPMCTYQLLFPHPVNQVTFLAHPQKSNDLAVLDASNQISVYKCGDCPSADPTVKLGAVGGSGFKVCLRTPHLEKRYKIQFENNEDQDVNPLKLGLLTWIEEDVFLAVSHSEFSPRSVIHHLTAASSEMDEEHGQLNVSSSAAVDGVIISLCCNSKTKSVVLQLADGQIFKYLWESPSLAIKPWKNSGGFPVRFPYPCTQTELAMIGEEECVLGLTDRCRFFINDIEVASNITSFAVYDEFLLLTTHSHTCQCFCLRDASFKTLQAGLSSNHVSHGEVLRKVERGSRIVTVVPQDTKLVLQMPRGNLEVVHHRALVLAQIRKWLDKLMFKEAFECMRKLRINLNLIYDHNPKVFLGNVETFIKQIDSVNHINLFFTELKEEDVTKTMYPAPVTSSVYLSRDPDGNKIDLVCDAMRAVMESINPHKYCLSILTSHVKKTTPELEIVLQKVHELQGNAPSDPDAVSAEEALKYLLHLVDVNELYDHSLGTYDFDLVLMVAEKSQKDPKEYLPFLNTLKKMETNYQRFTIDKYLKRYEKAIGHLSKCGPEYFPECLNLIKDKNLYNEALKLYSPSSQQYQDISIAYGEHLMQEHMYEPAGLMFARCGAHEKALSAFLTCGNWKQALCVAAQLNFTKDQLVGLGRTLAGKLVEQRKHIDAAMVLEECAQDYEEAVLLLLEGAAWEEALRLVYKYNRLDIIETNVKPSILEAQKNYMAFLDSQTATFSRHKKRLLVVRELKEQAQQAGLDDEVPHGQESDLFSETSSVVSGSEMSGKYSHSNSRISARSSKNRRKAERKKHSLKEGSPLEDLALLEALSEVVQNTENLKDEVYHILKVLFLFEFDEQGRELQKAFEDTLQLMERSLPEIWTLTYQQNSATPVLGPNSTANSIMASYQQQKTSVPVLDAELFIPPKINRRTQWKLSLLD
T1 sequence (Q6IA86 whole entry, chain 2 of 3): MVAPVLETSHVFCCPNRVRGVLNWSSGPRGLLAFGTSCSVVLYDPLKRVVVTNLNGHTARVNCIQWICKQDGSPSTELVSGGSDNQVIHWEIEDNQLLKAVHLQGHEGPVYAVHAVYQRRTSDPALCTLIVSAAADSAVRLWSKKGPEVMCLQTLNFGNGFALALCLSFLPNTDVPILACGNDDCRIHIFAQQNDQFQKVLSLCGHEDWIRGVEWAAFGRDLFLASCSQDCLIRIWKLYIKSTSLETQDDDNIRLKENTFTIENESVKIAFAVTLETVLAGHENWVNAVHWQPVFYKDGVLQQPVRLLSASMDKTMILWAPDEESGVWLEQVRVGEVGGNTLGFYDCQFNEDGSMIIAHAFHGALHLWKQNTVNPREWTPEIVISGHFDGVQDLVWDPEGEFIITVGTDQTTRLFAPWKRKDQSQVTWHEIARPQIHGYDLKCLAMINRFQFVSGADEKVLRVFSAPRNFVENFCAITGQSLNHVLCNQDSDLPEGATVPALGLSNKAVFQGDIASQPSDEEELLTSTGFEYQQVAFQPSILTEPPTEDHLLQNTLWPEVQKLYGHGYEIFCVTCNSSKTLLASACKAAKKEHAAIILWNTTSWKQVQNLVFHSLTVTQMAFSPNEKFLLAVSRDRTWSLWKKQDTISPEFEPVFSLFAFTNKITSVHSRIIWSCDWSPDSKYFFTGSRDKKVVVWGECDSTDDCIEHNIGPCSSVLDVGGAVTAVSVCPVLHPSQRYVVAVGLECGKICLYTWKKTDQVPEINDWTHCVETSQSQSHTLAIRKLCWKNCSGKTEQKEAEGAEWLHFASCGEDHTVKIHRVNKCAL
T1 sequence (Q9H9T3 whole entry, chain 3 of 3): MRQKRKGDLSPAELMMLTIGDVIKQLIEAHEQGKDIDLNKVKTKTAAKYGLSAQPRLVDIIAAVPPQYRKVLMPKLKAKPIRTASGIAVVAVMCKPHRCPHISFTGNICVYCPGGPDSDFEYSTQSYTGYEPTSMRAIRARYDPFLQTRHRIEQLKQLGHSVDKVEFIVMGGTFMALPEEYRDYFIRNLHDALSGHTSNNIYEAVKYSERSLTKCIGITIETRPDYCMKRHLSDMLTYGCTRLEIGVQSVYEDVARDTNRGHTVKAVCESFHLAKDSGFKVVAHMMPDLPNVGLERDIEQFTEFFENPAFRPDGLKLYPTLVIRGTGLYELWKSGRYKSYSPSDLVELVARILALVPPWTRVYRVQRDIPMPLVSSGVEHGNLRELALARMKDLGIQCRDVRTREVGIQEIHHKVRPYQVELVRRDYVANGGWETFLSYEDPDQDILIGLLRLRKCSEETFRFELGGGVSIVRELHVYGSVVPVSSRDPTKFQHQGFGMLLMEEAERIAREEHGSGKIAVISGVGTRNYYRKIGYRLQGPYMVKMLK

Binder | binding result [1] | binding result [2]
B1 | binds | –
B2 | – | binds
